Measured values published in patent US20120178908A1 (Novo Nordisk, published 2012).

T1: TLT-1 18-188 relipidated in 20:80 PS:PC vesicles (human, UniProt Q86YW5 18-188)
T1 sequence: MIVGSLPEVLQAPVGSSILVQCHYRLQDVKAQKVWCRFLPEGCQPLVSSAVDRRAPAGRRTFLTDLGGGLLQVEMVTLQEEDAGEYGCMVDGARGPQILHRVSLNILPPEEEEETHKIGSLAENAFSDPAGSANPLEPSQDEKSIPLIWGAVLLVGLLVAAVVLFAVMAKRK

T2: TLT-1 receptor on the surface of activated human platelets (human, UniProt Q86YW5 16-311)
T2 sequence: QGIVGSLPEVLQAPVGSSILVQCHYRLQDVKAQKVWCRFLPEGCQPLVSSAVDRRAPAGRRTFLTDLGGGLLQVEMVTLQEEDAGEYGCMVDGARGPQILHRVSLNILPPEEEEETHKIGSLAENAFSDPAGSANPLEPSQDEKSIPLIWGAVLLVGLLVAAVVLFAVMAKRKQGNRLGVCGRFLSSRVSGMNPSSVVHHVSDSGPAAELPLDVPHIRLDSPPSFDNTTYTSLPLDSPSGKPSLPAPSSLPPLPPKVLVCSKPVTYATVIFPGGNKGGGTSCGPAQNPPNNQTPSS

B1: Fab 0023-LC-L7-TF;VH-CH1-HPC4 (other)
light chain-linker-TF: DIVVSQSPSSLAVSAGEKVTMSCKSSQSLLNSRTRKNYLAWYQQKPGQSPKLLIYWASTRESGVPDRFTGSGSGTDFTLTISSVQAEDLAVYYCKQSYNLLTFGAGTKLELKRTVAAPSVFIFPPSDEQLKSGTASVVCLLNNFYPREAKVQWKVDNALQSGNSQESVTEQDSKDSTYSLSSTLTLSKADYEKHKVYACEVTHQGLSSPVTKSFNRGECGGGGSGGGGSGGGGSGSGGGGSGGGGSGGGGSSGTTNTVAAYNLTWKSTNFKTILEWEPKPVNQVYTVQISTKSGDWKSKCFYTTDTECDLTDEIVKDVKQTYLARVFSYPAGNVESTGSAGEPLYENSPEFTPYLETNLGQPTIQSFEQVGTKVNVTVEDERTLVRRNNTFLSLRDVFGKDLIYTLYYWKSSSSGKKTAKTNTNEFLIDVDKGENYCFSVQAVIPSRTVNRKSTDSPVECMGQEKGEFRE
VH-CH1-HPC4: EVRLVESGGGLVQPGGSLKLSCATSGFTFSDYFMYWIRQTPEKRLEWVAYISNGGDSSSYPDTVKGRFTISRDNAKNTLYLQMSRLKSEDTAMYYCATNKNWDDYYDMDYWGQGTSVTVSSASTKGPSVFPLAPCSRSTSESTAALGCLVKDYFPEPVTVSWNSGALTSGVHTFPAVLQSSGLYSLSSVVTVPSSSLGTKTYTCNVDHKPSNTKVDKRVESKEDQVDPRLIDGK
B2: Fab 0023-LC-L8-TF;VH-CH1-HPC4 (other)
light chain-linker-TF: DIVVSQSPSSLAVSAGEKVTMSCKSSQSLLNSRTRKNYLAWYQQKPGQSPKLLIYWASTRESGVPDRFTGSGSGTDFTLTISSVQAEDLAVYYCKQSYNLLTFGAGTKLELKRTVAAPSVFIFPPSDEQLKSGTASVVCLLNNFYPREAKVQWKVDNALQSGNSQESVTEQDSKDSTYSLSSTLTLSKADYEKHKVYACEVTHQGLSSPVTKSFNRGECGGGGSGGGGSGGGGSGGGGSGSGGGGSGGGGSGGGGSSGTTNTVAAYNLTWKSTNFKTILEWEPKPVNQVYTVQISTKSGDWKSKCFYTTDTECDLTDEIVKDVKQTYLARVFSYPAGNVESTGSAGEPLYENSPEFTPYLETNLGQPTIQSFEQVGTKVNVTVEDERTLVRRNNTFLSLRDVFGKDLIYTLYYWKSSSSGKKTAKTNTNEFLIDVDKGENYCFSVQAVIPSRTVNRKSTDSPVECMGQEKGEFRE
VH-CH1-HPC4: B1 VH-CH1-HPC4
B3: Fab 0023-LC-L9-TF;VH-CH1-HPC4 (other)
light chain-linker-TF: DIVVSQSPSSLAVSAGEKVTMSCKSSQSLLNSRTRKNYLAWYQQKPGQSPKLLIYWASTRESGVPDRFTGSGSGTDFTLTISSVQAEDLAVYYCKQSYNLLTFGAGTKLELKRTVAAPSVFIFPPSDEQLKSGTASVVCLLNNFYPREAKVQWKVDNALQSGNSQESVTEQDSKDSTYSLSSTLTLSKADYEKHKVYACEVTHQGLSSPVTKSFNRGECGGGGSGGGGSGGGGSGGGGSGGGGSGSGGGGSGGGGSGGGGSSGTTNTVAAYNLTWKSTNFKTILEWEPKPVNQVYTVQISTKSGDWKSKCFYTTDTECDLTDEIVKDVKQTYLARVFSYPAGNVESTGSAGEPLYENSPEFTPYLETNLGQPTIQSFEQVGTKVNVTVEDERTLVRRNNTFLSLRDVFGKDLIYTLYYWKSSSSGKKTAKTNTNEFLIDVDKGENYCFSVQAVIPSRTVNRKSTDSPVECMGQEKGEFRE
VH-CH1-HPC4: B1 VH-CH1-HPC4
B4: Fab 0023-VH-CH1-L4a-TF;LC-HPC4 (other)
VH-CH1-linker-TF: EVRLVESGGGLVQPGGSLKLSCATSGFTFSDYFMYWIRQTPEKRLEWVAYISNGGDSSSYPDTVKGRFTISRDNAKNTLYLQMSRLKSEDTAMYYCATNKNWDDYYDMDYWGQGTSVTVSSASTKGPSVFPLAPCSRSTSESTAALGCLVKDYFPEPVTVSWNSGALTSGVHTFPAVLQSSGLYSLSSVVTVPSSSLGTKTYTCNVDHKPSNTKVDKRVESKGSGGGGSGGGGSGGGGSSGTTNTVAAYNLTWKSTNFKTILEWEPKPVNQVYTVQISTKSGDWKSKCFYTTDTECDLTDEIVKDVKQTYLARVFSYPAGNVESTGSAGEPLYENSPEFTPYLETNLGQPTIQSFEQVGTKVNVTVEDERTLVRRNNTFLSLRDVFGKDLIYTLYYWKSSSSGKKTAKTNTNEFLIDVDKGENYCFSVQAVIPSRTVNRKSTDSPVECMGQEKGEFRE
light chain-HPC4: DIVVSQSPSSLAVSAGEKVTMSCKSSQSLLNSRTRKNYLAWYQQKPGQSPKLLIYWASTRESGVPDRFTGSGSGTDFTLTISSVQAEDLAVYYCKQSYNLLTFGAGTKLELKRTVAAPSVFIFPPSDEQLKSGTASVVCLLNNFYPREAKVQWKVDNALQSGNSQESVTEQDSKDSTYSLSSTLTLSKADYEKHKVYACEVTHQGLSSPVTKSFNRGECEDQVDPRLIDGK
B5: Fab 0051-VH-CH1-L4a-TF;LC-HPC4 (other)
VH-CH1-linker-TF: QVQLEQSGAELVRPGVSVKISCKGSGYTFTDYSMHWVKQSHAKSLEWIGVISTYYGDVRYNQKFKGKATMTVDKSSSTAYMALARLTSEDSAIYYCARAPMITTGAWFAYWGQGTLVTVSAASTKGPSVFPLAPCSRSTSESTAALGCLVKDYFPEPVTVSWNSGALTSGVHTFPAVLQSSGLYSLSSVVTVPSSSLGTKTYTCNVDHKPSNTKVDKRVESKGSGGGGSGGGGSGGGGSSGTTNTVAAYNLTWKSTNFKTILEWEPKPVNQVYTVQISTKSGDWKSKCFYTTDTECDLTDEIVKDVKQTYLARVFSYPAGNVESTGSAGEPLYENSPEFTPYLETNLGQPTIQSFEQVGTKVNVTVEDERTLVRRNNTFLSLRDVFGKDLIYTLYYWKSSSSGKKTAKTNTNEFLIDVDKGENYCFSVQAVIPSRTVNRKSTDSPVECMGQEKGEFRE
light chain-HPC4: SIVMTQTPKFLLVSAGDRVTITCKASQSVSNDVAWYQQKPGQSPKLLINYASSRYTGIPDRFTGSGYGTDFTFTISTVQAEDLAVYFCQQDYSSPYTFGGGTKLEIERTVAAPSVFIFPPSDEQLKSGTASVVCLLNNFYPREAKVQWKVDNALQSGNSQESVTEQDSKDSTYSLSSTLTLSKADYEKHKVYACEVTHQGLSSPVTKSFNRGECEDQVDPRLIDGK
B6: Fab 0052-LC-L4a-TF;VH-CH1-HPC4 (other)
light chain-linker-TF: DIQMTQTTSSLSASLGDRVTISCRASQDISNYLNWYQQKPDGTVKLLIFYTSRLHSGVPSRFSGSGSGTDYSLTISNLEPEDIATYYCQQDTKLPYTFGGGTKLEMKRTVAAPSVFIFPPSDEQLKSGTASVVCLLNNFYPREAKVQWKVDNALQSGNSQESVTEQDSKDSTYSLSSTLTLSKADYEKHKVYACEVTHQGLSSPVTKSFNRGECGSGGGGSGGGGSGGGGSSGTTNTVAAYNLTWKSTNFKTILEWEPKPVNQVYTVQISTKSGDWKSKCFYTTDTECDLTDEIVKDVKQTYLARVFSYPAGNVESTGSAGEPLYENSPEFTPYLETNLGQPTIQSFEQVGTKVNVTVEDERTLVRRNNTFLSLRDVFGKDLIYTLYYWKSSSSGKKTAKTNTNEFLIDVDKGENYCFSVQAVIPSRTVNRKSTDSPVECMGQEKGEFRE
VH-CH1-HPC4: QVQLQQSGAEPMKPGASVKISCKATGYTFSSHWIEWIKQRPGHGLEWIGEILPGSGNTNYNEKFKGKATFTADTSSNTAYMQLSSLTSEDSAVYCCARGYYGLNYDWYFDVWGAGTTVTVSSASTKGPSVFPLAPCSRSTSESTAALGCLVKDYFPEPVTVSWNSGALTSGVHTFPAVLQSSGLYSLSSVVTVPSSSLGTKTYTCNVDHKPSNTKVDKRVESKEDQVDPRLIDGK
B7: Fab 0052-VH-CH1-L4a-TF;LC-HPC4 (other)
VH-CH1-linker-TF: QVQLQQSGAEPMKPGASVKISCKATGYTFSSHWIEWIKQRPGHGLEWIGEILPGSGNTNYNEKFKGKATFTADTSSNTAYMQLSSLTSEDSAVYCCARGYYGLNYDWYFDVWGAGTTVTVSSASTKGPSVFPLAPCSRSTSESTAALGCLVKDYFPEPVTVSWNSGALTSGVHTFPAVLQSSGLYSLSSVVTVPSSSLGTKTYTCNVDHKPSNTKVDKRVESKGSGGGGSGGGGSGGGGSSGTTNTVAAYNLTWKSTNFKTILEWEPKPVNQVYTVQISTKSGDWKSKCFYTTDTECDLTDEIVKDVKQTYLARVFSYPAGNVESTGSAGEPLYENSPEFTPYLETNLGQPTIQSFEQVGTKVNVTVEDERTLVRRNNTFLSLRDVFGKDLIYTLYYWKSSSSGKKTAKTNTNEFLIDVDKGENYCFSVQAVIPSRTVNRKSTDSPVECMGQEKGEFRE
light chain-HPC4: DIQMTQTTSSLSASLGDRVTISCRASQDISNYLNWYQQKPDGTVKLLIFYTSRLHSGVPSRFSGSGSGTDYSLTISNLEPEDIATYYCQQDTKLPYTFGGGTKLEMKRTVAAPSVFIFPPSDEQLKSGTASVVCLLNNFYPREAKVQWKVDNALQSGNSQESVTEQDSKDSTYSLSSTLTLSKADYEKHKVYACEVTHQGLSSPVTKSFNRGECEDQVDPRLIDGK
B8: hTF.1-219 (soluble tissue factor) (receptor)
chain: SGTTNTVAAYNLTWKSTNFKTILEWEPKPVNQVYTVQISTKSGDWKSKCFYTTDTECDLTDEIVKDVKQTYLARVFSYPAGNVESTGSAGEPLYENSPEFTPYLETNLGQPTIQSFEQVGTKVNVTVEDERTLVRRNNTFLSLRDVFGKDLIYTLYYWKSSSSGKKTAKTNTNEFLIDVDKGENYCFSVQAVIPSRTVNRKSTDSPVECMGQEKGEFRE

Key:
[1] = target: T1, TLT-1 18-188 relipidated in 20:80 PS:PC …; test: cell-based or functional assay
[2] = target: T2, TLT-1 receptor on the surface of …; test: cell-based or functional assay

Binder	FVII-mediated FXa generation % Activity lipidated TLT-1 [1]	FVIIa-mediated FXa generation % Activity lipidated TLT-1 [1]	FVII-mediated FXa generation % Activity activated plts (n 1) [2]	FVIIa-mediated FXa generation % Activity activated plts (n 1) [2]
B1	25%	40%	17%	35%
B2	24%	35%	16%	33%
B3	24%	38%	14%	32%
B4	26%	53%	14%	45%
B5	22%	48%	43%	72%
B6	9%	29%		20%
B7	13%	29%	10%	25%
B8	1%	13%	2%	4%
